# Values quoted from earlier work, collected in paper PMC5681435, “Differential Regulation of G1 CDK Complexes by the Hsp90-Cdc37 Chaperone System” (Cell Reports, 2017).
# Target: B-Raf V600E kinase domain (Homo sapiens) (UniProt P15056)
# Test: ITC
# Conditions: cited from earlier work
# Sequence of Cdc37 (Q16543 2-378): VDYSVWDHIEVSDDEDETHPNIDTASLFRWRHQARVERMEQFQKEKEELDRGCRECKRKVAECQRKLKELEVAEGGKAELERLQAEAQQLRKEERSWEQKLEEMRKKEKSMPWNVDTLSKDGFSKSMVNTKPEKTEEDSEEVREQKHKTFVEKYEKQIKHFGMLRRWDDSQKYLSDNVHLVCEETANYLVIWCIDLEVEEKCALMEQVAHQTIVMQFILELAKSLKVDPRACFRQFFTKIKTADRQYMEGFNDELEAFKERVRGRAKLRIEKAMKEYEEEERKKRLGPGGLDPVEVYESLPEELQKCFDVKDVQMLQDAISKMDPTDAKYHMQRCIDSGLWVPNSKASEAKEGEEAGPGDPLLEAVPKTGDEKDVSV
# Sequence of B-Raf V600E kinase domain (Homo sapiens) (P15056 457-717 V600E): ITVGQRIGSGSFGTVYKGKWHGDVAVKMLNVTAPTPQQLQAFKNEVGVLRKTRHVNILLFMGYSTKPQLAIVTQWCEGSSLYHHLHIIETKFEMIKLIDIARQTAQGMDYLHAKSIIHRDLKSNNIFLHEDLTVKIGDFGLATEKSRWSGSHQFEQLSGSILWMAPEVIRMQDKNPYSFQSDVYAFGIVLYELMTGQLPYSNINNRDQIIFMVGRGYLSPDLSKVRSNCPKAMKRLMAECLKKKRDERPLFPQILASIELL
substance,measurement,value
Cdc37 (from UniProt Q16543),Kd,200 nM
